Measured values reported in patent publication US11814435B2, “Therapeutic antibodies and their uses” (PFIZER INC., priority 2015, dated 2023).
Numbering of substitutions follows the chain as printed. Blank lines part the entries; values can stand above or below the molecule they belong to.

Tests used:
hBCMA (human BCMA) = target: T1, hBCMA (human BCMA) (Homo sapiens, UniProt Q02223); assay: Kinetics and affinity of hBCMA/human IgG interactions by SPR (Bio-Rad Proteon XPR36); format: binding; details: 37° C.; for ka Human / kd Human / Kd: human BCMA
T1 sequence (Q02223 1-184): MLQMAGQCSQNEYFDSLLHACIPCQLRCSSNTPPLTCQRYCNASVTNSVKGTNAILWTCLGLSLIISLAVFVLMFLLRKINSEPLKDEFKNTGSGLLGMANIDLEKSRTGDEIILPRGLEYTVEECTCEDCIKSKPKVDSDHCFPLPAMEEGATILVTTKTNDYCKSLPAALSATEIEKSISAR
Summary of the method: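 First, antibodies are immobilized by amine coupling onto a GLC sensor chip at 25° C. Next, hBCMA is titrated from 0.08 to 50 nM in one cycle, each injection lasting two minutes, in BSA-supplemented HBS-T+ at 37° C. or 25° C. Finally, dissociation runs two hours before kinetic-titration fitting.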

cyBCMA = assay: Kinetics and affinity of cyBCMA/human IgG interactions by SPR (Bio-Rad Proteon XPR36); format: binding, cynomolgus; details: 37° C.
Cyno BCMA = assay: Kinetics and affinity of cyno BCMA/human IgG interactions by SPR (Bio-Rad Proteon XPR36); format: binding, cynomolgus; details: 37° C.

ka (1/Ms) huBCMA @ 37° C. (hBCMA (human BCMA)): 2.14e+06 M⁻¹ s⁻¹ | kd (1/s) huBCMA @37° C. (hBCMA (human BCMA)): 0.00165 s⁻¹ | kd (1/s) cyBCMA @37° C. (cyBCMA): 0.00258 s⁻¹
B1: L3.PY/L3.KY/H2.YQ: anti-BCMA antibody (antibody, V domains shown)
VH: EVQLLESGGGLVQPGGSLRLSCAASGFTFGSYAMTWVRQAPGKGLEWVSAISYQGGNTFYADSVKGRFTISRDNSKNTLYLQMNSLRAEDTAVYYCARVSPIASGMDYWGQGTLVTVSS
VL: EIVLTQSPGTLSLSPGERATLSCRASQSVSSSYLAWYQQKPGQAPRLLIYGASSRATGIPDRFSGSGSGTDFTLTISRLEPEDFAVYYCKYYPYPPSFTFGQGTKVEIK
ka (1/Ms) cyBCMA @ 37° C. (cyBCMA): 1.27e+06 M⁻¹ s⁻¹

ka (1/Ms) huBCMA @ 37° C. (hBCMA (human BCMA)): 3.58e+06 M⁻¹ s⁻¹ | kd (1/s) huBCMA @37° C. (hBCMA (human BCMA)): 0.00213 s⁻¹ | kd (1/s) cyBCMA @37° C. (cyBCMA): 0.0032 s⁻¹
B2: L3.PY/L1.PH/H3.TAQ: anti-BCMA antibody (antibody, V domains shown)
VH: B1 VH with Y53G, Q54S, A97T, S104A, G105Q
VL: B1 VL with S31P, S32H, K90Q, Y91H
ka (1/Ms) cyBCMA @ 37° C. (cyBCMA): 2.51e+06 M⁻¹ s⁻¹

ka (1/Ms) huBCMA @ 37° C. (hBCMA (human BCMA)): 3.29e+06 M⁻¹ s⁻¹ | kd (1/s) huBCMA @37° C. (hBCMA (human BCMA)): 0.00163 s⁻¹ | kd (1/s) cyBCMA @37° C. (cyBCMA): 0.00318 s⁻¹
B3: L3.PY/L3.KY/H2.HA: anti-BCMA antibody (antibody, V domains shown)
VH: B1 VH with Y53H, Q54A
VL: B1 VL
ka (1/Ms) cyBCMA @ 37° C. (cyBCMA): 2.28e+06 M⁻¹ s⁻¹

kd Cyno (Cyno BCMA): 0.000448 s⁻¹ | ka Human (hBCMA (human BCMA)): 4.26e+06 M⁻¹ s⁻¹ | kd Human (hBCMA (human BCMA)): 0.000139 s⁻¹
B4: A02_Rd4_6 nM_C26: anti-BCMA antibody (antibody, V domains shown)
VH: EVQLLESGGGLVQPGGSLRLSCAASGFTFSSYAMNWVRQAPGKGLEWVSAISDSGGSTYYADSVKGRFTISRDNSKNTLYLQMNSLRAEDTAVYYCARYWPMSLWGQGTLVTVSS
VL: EIVLTQSPGTLSLSPGERATLSCRASQSVSSLYLAWYQQKPGQAPRLLMYDASIRATGIPDRFSGSGSGTDFTLTISRLEPEDFAVYYCQQYQVWPLTFGQGTKVEIK
ka Cyno (Cyno BCMA): 2.21e+06 M⁻¹ s⁻¹

kd Cyno (Cyno BCMA): 0.000414 s⁻¹ | ka Human (hBCMA (human BCMA)): 1.22e+07 M⁻¹ s⁻¹ | kd Human (hBCMA (human BCMA)): 0.000255 s⁻¹
B5: A02_Rd4_6 nM_C23: anti-BCMA antibody (antibody, V domains shown)
VH: B4 VH with T58G, Y59W
VL: B4 VL with S31V, L32E, Q93A, V94R
ka Cyno (Cyno BCMA): 2.63e+06 M⁻¹ s⁻¹

kd Cyno (Cyno BCMA): 0.00033 s⁻¹ | ka Human (hBCMA (human BCMA)): 2.75e+06 M⁻¹ s⁻¹ | kd Human (hBCMA (human BCMA)): 0.00018 s⁻¹
B10: A02_Rd4_6 nM_C25: anti-BCMA antibody (antibody, V domains shown)
VH: B4 VH with T58R, Y59W, S103T, L104P
VL: B4 VL with L32S, Q93L, V94D
ka Cyno (Cyno BCMA): 1.5e+06 M⁻¹ s⁻¹

Second part, the molecule before the results:

B6: A02_Rd4_6 nM_C22: anti-BCMA antibody (antibody, V domains shown)
VH: B4 VH with I51V, S52L, S103T, L104P
VL: B4 VL with L32S
ka Cyno (Cyno BCMA): 1.84e+06 M⁻¹ s⁻¹ | kd Cyno (Cyno BCMA): 0.000324 s⁻¹ | ka Human (hBCMA (human BCMA)): 3.38e+06 M⁻¹ s⁻¹ | kd Human (hBCMA (human BCMA)): 0.000182 s⁻¹

B7: A02_Rd4_0.6 nM_C18: anti-BCMA antibody (antibody, V domains shown)
VH: B4 VH with I51V, S52L
VL: B4 VL with S31E, Q93F, V94G
Kd (Cyno BCMA): 0.197 nM | ka Cyno (Cyno BCMA): 3.24e+06 M⁻¹ s⁻¹ | kd Cyno (Cyno BCMA): 0.000639 s⁻¹ | Kd (hBCMA (human BCMA)): 0.048 nM | ka Human (hBCMA (human BCMA)): 4.73e+06 M⁻¹ s⁻¹ | kd Human (hBCMA (human BCMA)): 0.000229 s⁻¹

B8: A02_Rd4_6 nM_C19: anti-BCMA antibody (antibody, V domains shown)
VH: B4 VH with T58R, Y59W, L104D
VL: B4 VL with S31V, Q93L, V94A
Kd (Cyno BCMA): 0.26 nM | ka Cyno (Cyno BCMA): 2.54e+06 M⁻¹ s⁻¹ | kd Cyno (Cyno BCMA): 0.000661 s⁻¹ | Kd (hBCMA (human BCMA)): 0.049 nM | ka Human (hBCMA (human BCMA)): 3e+06 M⁻¹ s⁻¹ | kd Human (hBCMA (human BCMA)): 0.000148 s⁻¹

B9: A02_Rd4_0.6 nM_C03: anti-BCMA antibody (antibody, V domains shown)
VH: B4 VH with T58K, Y59W
VL: B4 VL with L32S, Q93F, V94T
ka Cyno (Cyno BCMA): 2.12e+06 M⁻¹ s⁻¹ | kd Cyno (Cyno BCMA): 0.000426 s⁻¹ | ka Human (hBCMA (human BCMA)): 4.27e+06 M⁻¹ s⁻¹ | kd Human (hBCMA (human BCMA)): 0.000182 s⁻¹

B11: A02_Rd4_6 nM_C07: anti-BCMA antibody (antibody, V domains shown)
VH: B4 VH with S52G, D53G, T58L, Y59P, S103D, L104S
VL: B4 VL with S31P, L32Y, Q93E, V94R
ka Cyno (Cyno BCMA): 691000 M⁻¹ s⁻¹ | kd Cyno (Cyno BCMA): 0.000786 s⁻¹ | ka Human (hBCMA (human BCMA)): 1.48e+06 M⁻¹ s⁻¹ | kd Human (hBCMA (human BCMA)): 0.000189 s⁻¹
